From patent US20060127393A1 (Amgen, published 2006) come the findings set out here.

In assay [1] the target is rat Dkk-1 (rat). Briefly: SPR, BiaCore 2000, Dkk-1 immobilized on CM5 chip, antibody injected. The protocol:
(§1) Kinetic analyses were performed to study the binding of the 11H10 and 1F11 antibodies to Dkk-1 using BiaCore 2000 (BIACORE, Uppsala, Sweden). Rat Dkk-1 (260 μg/ml), murine Dkk-1 (690 μg/ml) and human Dkk-1(900 μg/ml) were immobilized on a CM5 chip surface, and various concentrations (0.78 nM to about 100 nM) of the antibodies were injected over the immobilized Dkk-1 surfaces. The binding sensorgrams were analyzed using BIAevaluation 3.2.
On the technique in general: In SPR one partner is held on a chip, and binding of the other changes the refractive index at the surface.

In assay [2] the target is T1, human Dkk-1 (human, UniProt O94907 32-266, carbohydrate moieties attached to Asn256).
T1 construct: Recombinant; also called hDkk-1; human dickkopf-1
T1 sequence: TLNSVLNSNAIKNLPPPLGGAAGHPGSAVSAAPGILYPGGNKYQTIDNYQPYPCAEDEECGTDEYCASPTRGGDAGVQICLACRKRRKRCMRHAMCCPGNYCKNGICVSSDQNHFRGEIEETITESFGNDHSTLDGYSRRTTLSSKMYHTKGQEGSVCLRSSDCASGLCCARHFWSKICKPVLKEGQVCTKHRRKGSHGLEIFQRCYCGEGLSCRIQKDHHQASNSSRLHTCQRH
The description is as above. The protocol: as §1

Assay [3] addresses T2, murine Dkk-1 (mouse, UniProt O54908 32-272).
T2 construct: also called mouse Dkk-1; muDkk-1
T2 sequence: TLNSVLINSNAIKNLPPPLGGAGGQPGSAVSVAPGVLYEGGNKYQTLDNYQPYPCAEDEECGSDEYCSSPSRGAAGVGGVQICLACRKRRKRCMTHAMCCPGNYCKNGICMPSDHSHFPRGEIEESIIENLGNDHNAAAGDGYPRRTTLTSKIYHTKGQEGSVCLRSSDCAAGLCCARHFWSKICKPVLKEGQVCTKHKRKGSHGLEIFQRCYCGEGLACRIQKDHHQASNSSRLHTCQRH
The assay is described as above. The protocol:
as §1

Assay [4] concerns the target T3, CNBr2 fragment of human Dkk-1 (human, UniProt O94907 32-122; O94907 127-178).
T3 construct: Two peptides held together by disulfide bonds; represents disulfide domain 1
T3 sequence 1: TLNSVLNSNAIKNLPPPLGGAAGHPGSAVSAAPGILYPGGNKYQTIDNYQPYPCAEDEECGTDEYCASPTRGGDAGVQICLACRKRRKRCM
T3 sequence 2: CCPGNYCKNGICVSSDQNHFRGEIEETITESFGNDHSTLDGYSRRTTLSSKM
Description: BiaCore. The protocol: To characterize this conformational epitope, a strategy was applied that involved fragmenting human Dkk-1 with cyanogen bromide (CNBr) and several different proteases, then testing the resulting fragments to see whether they could still bind to the 11H10 antibody. The resulting data permitted the location of the epitope to be determined. In brief, the peptide digests were incubated with or without the antibody, passed through a 10 K cut-off membrane to trap any peptides that had become bound to the antibody (˜150,000 Da), then subjected to HPLC peptide mapping. […] The individual HPLC peaks were collected and the peptides identified and mapped by N-terminal sequencing. To determine if the peptides could bind 11H10, they were subjected to real time biospecific interaction assays with a BiaCore work station, using Protein A-trapped anti-Dkk-1 antibody as a biosensor for binding.
CNBr cleavage of hDkk-1 generated two large fragments, CNBr1 and CNBr2. These represented, respectively, disulfide domain 2 and disulfide domain 1. […] CNBr2 similarly consisted of two peptides (amino acids 32-122 of SEQ ID NO:2 and amino acids 127-178 of SEQ ID NO:2), also held together by disulfide bonds. […] Thus, it was concluded that 11H10 binds to an epitope located in disulfide domain 2 of Dkk-1.

Assay [5] deals with T1, human Dkk-1. Description: cell-based or functional assay.
The target in assay [6] is T2, murine Dkk-1. Briefly: cell-based or functional assay.
Assay [7] addresses rat Dkk-1 (rat). Briefly: KinExA 3000 equilibrium binding in solution, Dkk-1-coated beads. From the text: (§2) It was apparent from the BiaCore results that 11H10 had the higher affinity for Dkk-1, and that its affinity for target exceeded the sensitivity limits of the BiaCore assay. Accordingly, the affinity of binding of 11H10 to Dkk-1 was further assessed by an equilibrium binding analysis using the more sensitive KinExA® 3000 (Sapidyne Instruments Inc., Boise, Id.). For these measurements, Reacti-Gel 6× beads (Pierce, Rockford, Ill.) were pre-coated with either mouse, rat or human Dkk-1 and blocked with BSA. One hundred pM, 300 pM, or 1000 pM of the 11H10 antibody was mixed with various concentrations of human, mouse or rat Dkk-1, ranging in concentration from 1 pM to 50 nM, and equilibrated at room temperature for 8 hours. The mixtures were then passed over the Dkk-1-coated beads. The amount of bead-bound anti-Dkk-1 antibody was quantified using goat anti-rat-IgG antibody labeled with a fluorescent tag (Cy5; Jackson Immuno Research, West Grove, Pa.). The amount of fluorescent signal measured was proportional to the concentration of free anti-Dkk-1 antibody in each reaction mixture at equilibrium. The dissociation equilibrium constant (Kd) was obtained from nonlinear regression of the competition curves using a dual-curve one-site homogeneous binding model using the KinExA software.

For assay [8], the target named is T1, human Dkk-1. Described as above.
Description: as §2

For assay [9], the target named is T2, murine Dkk-1. The description is as above.
Description: as §2

Assay [10] concerns the target rat Dkk-1 (rat). Briefly: cell-based or functional assay.
For assay [11], the target named is T1, human Dkk-1. Briefly: cell-based or functional assay. This is another data set of the same source.
The target of assay [12] is T2, murine Dkk-1. Description: cell-based or functional assay. This is another data set of the same source.

B1: 11H10 monoclonal antibody (rat) (antibody, IgG1, V domains shown)
VH: EVQLVESGGGLVQPANSLKLSCAASGFTFSDYAMAWVRQSPKKGLEWVATIIYDGSSTYYRDSVKGRFTISRDNAKSTLYLQMDSLRSEDTATYYCATGLGIATDYFDYWGQGVLVTVSS
VL: DIRMTQSPASLSASLGETVNIECLASEDIYSDLAWYQQKPGKSPQLLIYNANSLQNGVPSRFSGSGSGTQYSLKINSLQSEDVATYFCQQYNNYPPTFGGGTKLELKR
notes: Rat hybridoma antibody of the IgG1 isotype; also called rat 11H10; L1H1
Consider B1, for which the Kd with rat Dkk-1 [1] is 0.29 nM; with human Dkk-1 [2] it was < 0.1 nM; in the assay with murine Dkk-1 [3], < 0.1 nM; in the assay with rat Dkk-1 [7] it was 0.54 nM; in the assay with human Dkk-1 [8], 0.13 nM; with murine Dkk-1 [9] it was 0.165 nM. Moreover, the koff with rat Dkk-1 [1] is 1.54e-05 s⁻¹; with human Dkk-1 [2], < 5e-05 s⁻¹; in the assay with murine Dkk-1 [3] it was < 5e-05 s⁻¹. In addition, the kon amounted to 54000 M⁻¹ s⁻¹ in the assay with rat Dkk-1 [1], 52000 M⁻¹ s⁻¹ in the assay with human Dkk-1 [2] and 54000 M⁻¹ s⁻¹ with murine Dkk-1 [3]. Moreover, the binding result in assay [4] was “no binding”. Also, the “EC50 (nM), restoring ALP activity in ST2 cells given Wnt3a and Dkk-1” value in the assay with human Dkk-1 [5] was determined as 3.5 nM; with murine Dkk-1 [6] it was 6.1 nM. For the same molecule, the “EC50 (nM), TCF-lef luciferase assay” value came out at 5 nM with rat Dkk-1 [10], 4 nM in the assay with human Dkk-1 [11] and 11.5 nM in the assay with murine Dkk-1 [12].

In general, Kd refers to the concentration at which binding is half-saturated. A word on the koff: it is the first-order rate constant of dissociation. A higher koff goes with a short-lived complex. Broadly, the kon is the rate constant with which the complex forms. Lower therefore signals slower complex formation.
